# According to publication doi:10.1101/710897v1:
# Test system: O=c1[nH]c(=O)c2[nH]cnc2[nH]1
# Test: cells, lysate or membranes
# Conditions: labelled compound, H+ symport, MM pH 6.8, 37 °C
substance,measurement,value
UapA (Aspergillus nidulans FGSC A4; K73A/R133A),Km,3.6 µM
UapA (Aspergillus nidulans FGSC A4),Km,5 ± 2 µM
